Measured values as given in the supplement of paper PMC9170038.

Tested on: K4 kissing-loop RNA reporter
Experiment: apparent KD of K4 kissing-loop reporter; higher = weaker reporter binding
Conditions: Eterna round: R107; input ligand: theophylline 20 uM
Description: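 RNA-MaP round R107: designed RNA switches with theophylline, tryptophan, arginine or FMN aptamers are transcribed on-chip within common flanks. They are titrated with a labelled K4 kissing-loop RNA reporter in RNA-MaP buffer (100 mM Tris pH 7.5, 80 mM KCl, 4 mM MgCl2), without ligand or with the indicated ligand. Median apparent KD per design.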
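Also: bound reporter read as fluorescence of individual clusters on recovered sequencing chips by microscopy, with normalized cluster intensities fitted with a binding model.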

Sequence | apparent KD of K4 kissing-loop reporter [µM]
UUCUACGAGUGAUGUUCGUAGUGUAUUCGCUAGGAUAUCGUUUUUUCGAGAAGGAGUGAUGAAGUGAUACGAAAGUAUCGCUUCU [FMN A 14] | 0.411
UGUAUGUGUCAGCGAGUGAUGUUCGACGAUACCAGACUCGAUAGAGUCCCUUGGCAGCGUAAUGCAUGCCAACUGGCACAUACUA [#SwitchBubble 12 #K4Early] | 0.608
AAUGAUCGUAUGGCGAGGUACUCGUGUUCGAAGGAUAUUAAUAGAAUAAGAAGGUCGAAAUCGUGUCUGGAAGUGAUGUUUCCAU [theeternabot_sameState_KL_FMN_A_32] | 0.123
UUUAAAUAUAGUGAUGUUAUAUAACAAUGACGAGGACCGGUACGGCCGCCACUCGAGAGAGAUAAUGGUCAUGCAAAUGUAUGUC [#15 K4 Tryptophan A Same State] | 0.746
CGUGAUGUAUGGCGGUUUGUCACUUAGGAUCAGGAUAUAUAAACAAAUAGAAGGGAUGGCGGAGUGAUGUUCCGCCGGCCGCCAU [FMN A Exl V8] | 0.15
GGGUUUGACGGAGGAUAUGCACUGAGGAGGAGAAUAUAGUGAUGUUAUAUAAGAGGAAGGAGAAGAGUAGAAGGCCGUUGGGUUU [SSFMNB.L] | 0.165
CGUUCCUCUGUCGAUACCAGCUUCAGUUGGCGGCCAGUGAUGUUGGUAUCGCCGAUGCCAAGCCCUUGGCAGCGACAGGAGACCC [Usleanza] | 0.095
ACUAGUUAAUCGGCCGCCACUUCUAGUGAUGUUAGAAUUAUCCAGAUUAUCAGCGUAGCACAUUGAAGGACCGGGAUAAGGUGGU [theeternabot_exclusion_KL_Trp_B_2] | 0.273
GGUAGCAUGGCGGCCGCCACUCUUCAUUAGUGAUGUUAAUGCCGAGUGCGCUAACUCCAACAGGAGAGGACCGGGCCAUGCUACC | 0.76
GUAAGACCGGGACUCCAGUGAUGUUGGAGGCAGGAUAUCCAGUCGAGGAGAAGGGCCAGGGAUAUCGAGCUGCUCGGUUCGUAGU [Rerareatra] | 0.107
ACGACGCAUAGUGAUACCAGCACAAUAUGAGUGAUGUUCAACAUAUAAAUGUAAUAAUUAUGCCCUUGGCAGCACUAUGCGUCAG [KL-SSTheoB1] | 0.707

Same assay, conditions: Eterna round: R107; input ligand: tryptophan 2.4 mM

Sequence | apparent KD of K4 kissing-loop reporter [µM]
CUGACGCUGAUACGGUGGCCGCUGGUCGUGCGAGGACCGGUACGGCCGCCACUCGCAUGAGUGAUGUUCAUGUGUCGUCGUCGUC [#07 K4 Tryptophan A Exclusion] | 0.123
CAACAGCUUACGGCCGCCACUCCUUUAUAUGGUGCGCACCGUUGAGCUCUAGUGAUGUUGGUGCCGAGGACCGGGUAGGAAAGUA [theeternabot_sameState_KL_Trp_B_31] | 0.412
CUUGAUGGAAACAUCGAGUAUUUCACUGAUACCAGUAUCGAUAGAUACCCUUGGCAGCAGGAUCAGUGUUUACGAGUGAUGUUCG [Ex Theophylline A K4 9] | 0.376
AAACAUUGGUCUGAUACCAGCUGAUCGGAAACGAUCUUGCUGGAGUGAUGUUCCAAGUAAAGCCCUUGGCAGCAGACCGAUGAAA [MAT - Same State Theophlline B - Mod of Eli - D19] | 0.0818
GGUCGCCUGAGCAGUGAUGUUGCAAGGGAAGGAGCGCGUUUUUUCGCAGGUAGGUCGCCCAAAUAAUAAGUUAAACUAGGCGACC [4.)] | 0.205
AAAUAGAUCAGUCAUCCAGUGAUGUUGGAAGGAGCGUGCGAAAGCACAGGUAGGUCGCCGAAAUAAAAGUGGCUGAUCAAAAUAA | 0.102
CCAGUGAUAAACGAUACCAGAAAUACCUUAUUUGGCCGGCGGAGUGAUGUUCCUAAUACUUUCCCUUGGCAGCGUCGAAUGCUAG [theeternabot_sameState_KL_Theo_B_16] | 0.0423
GUUUGGCGGACGGCCGCCACUCGGACGAGUCACAGUGAUGUUGUGGUUUGCCAGUCGACUUCAUCGAGGACCGGGUUUGUCGGGC [Exclusion Tryptophan B GF 20] | 0.379
GUAUAUCGAACUGAUACCAGAGAAUAUAGCAGUGAUGUUGCAUAUAUGAAUAAGACUCGACUCCCUUGGCAGCGGGAAGAUAUAC [On purpose 2] | 0.142
AGUUAUGUUGCGGCCGCCACUGCGCGAGUGAUGUUCGUGGCAUAUAUAAUGUUAUAUAUGCAUCACAGGACCGGGCGGCAUAGCG [Same State - Tryptophan B] | 0.152
UAGGAGUGAUGUUCCAUAUCUUGAGCCGAAGGAGCGGCAUUAUAGCCAGGUAGGUCGCGGCAGAAGGUACCAGUGAUGUUGGAAA [Same State Arginine A GF5] | 0.173
UGGAGUUGACGAAGAGUCAACUCCUGAGAUACCAGUGACGAAAGUCACCCUUGGCAGCUCUCUGCCAGUGAUGUUGGUUUAUAAG [#07 K4 Theophylline A Same State] | 0.117
UGUACCGAAUCAGGAUAUGUCGUCGAAAGACGAAAUGGAGUGAUGUUCCUUAAACUGCGAAAGCAGACAGAAGGGAUUUGGUACU [FmnBS 29 A9+U77] | 0.385
CCUGCAGCUGUUACCGAGGGAUGCUACGGACGAGGACCGGUACGGCCGCCACUCGCCAGUGAUGUUGGUGAGGGAGGACGUUACU [KL-XTryp-A21] | 0.107
UGAUGUUUAGGUCACCCAGUGAUGUUGGAAGGAGCGUGCGAAAGCACAGGUAGGUCGCCAACCUAAAAGUGACCUGAGCAUCUAA [#SwitchBubble 8 #K4Early] | 0.846
UCCUAGGCUCGAAAGAGCCUAGGAUUUACUCAGGAUAUCCGGAAACGGAGAAGGGAGUAACUAGUGAUGUUAGGGAUUCCCUAUU | 0.125
GUACCUUGGAAACAAGGACAGCUAACCGAAGGAGCGCGUGAAAACGCAGGUAGGUCGCGGUAGCGGAGUGAUGUUCCGCGAGAGC [Same State Arginine A GF 19] | 0.108
UGAUACCAGACGGCCGCCACUCCUGCAGUCAAAGACUGCAAGGAAAUAUUCGUCCAGUGAUGUUGGAGGACCGGGUCUGGUAUCU [TrypBX 9 #SwitchBubble #Palindromic #StaticStem] | 1.06
CCGGGCGGCUGAAGGAGCGGGCGGGCCCGAGUGAUGUUCGGGUGGACCGUGAGGUCCGGUGCCCAGGUAGGUCGCGGUUCCGCCC [#2 Same State - Arginine B Attempt #8 (HarryS)] | 0.238
GGCCGAAGAGAAGGAUAUGGUUUCACGCGUCGUUAGUGAUGUUAAUGCGCAUGCCUUAGUAUAGAGCCAGAAGGUCUGGUCAGAA [theeternabot_sameState_KL_FMN_B_34] | 0.213
CCAUCGCUAUUCGAUACCAGCUACUUAGUGAUGUUAAGUUAAAAUCAAUUGUAGAUUGAAAGCCCUUGGCAGCGAAUAGUGAUGG [Theophylline B K4 21] | 0.135

Sequence | apparent KD of K4 kissing-loop reporter [µM]
UGAUAGGACAGAAGGAGCGGUAGUGAUGUUGCCAAAAGGGUAAGGUGUCAAAAGACACCCUACCAGGUAGGUCGCUGUCCUAUCU | 0.0834
CCAACAACGAGUGAUGUUCGUUGAUCAGAAGGAGCGUCAAUAAUGACAGGUAGGUCGCUGAUAAUUGGAAAUAGGGCAAUAGCUU [Same State Arginine A GF12] | 0.105
AUGUACACGAUAGUGUACUCCUAGUGAUGUUAGGAUAUGCAGAUAUGCAGAAGGAACAAGUCAUCUGACAAUAGUCGGAUGACAA [FmnAX 9 #OpenEnded #K4Early] | 0.0941
ACGUGAAGCGACUCCUAGUUAAACCGGGAAGGAGCGCGGAUAACCGCAGGUAGGUCGCCCGGAAGCCGGACCAGUGAUGUUGGUC [Exclusion Arginine A Gf 26] | 0.198
GGAUAGGACAGAGGAUAUCCUAAAGAGGCAAGAAUAACUUGUCUCAAAUGGAUGACCAGUGAUGUUGGAGAAGGCUGUCCUAUCG [FmnBX 6 - #SwitchBubble #StaticStem] | 0.178
GGGAGUAGUGCGGCCGCCACUGAGAAAGAAGAAGAAUAUAGUGAUGUUAUAUAGGAAGGGAAGAAUAGGACCGGGCAUUAGAUUU [SSTRyptB.Z] | 0.233
UGAUACCAGACUGAUACCAGCCAGUGAUGUUGGCUAAUCCAAGAAGGAGUCAAAGACUCCGGCCCUUGGCAGCAGUCUGGUAUCU [TheoBX 3 #SwitchBubble #StaticStem] | 0.109
GCCGUACGCAUGGAUACCAGCGCUCGUCACCUAGCAGUGAUGUUGCUAAUGCCACGAGGACGCCCUUGGCAGCCAUGCGUACGGC | 0.107
CGCAAAUCGUCGGCCGCCACUGCAUUUGAACGCUAAUUGUCUCUGCGCGGAGUGAUGUUCUGUGCCAGGACCGGGACGGAUUUCG [theeternabot_exclusion_KL_Trp_B_21] | 0.146
GGAUAGGACAAAGGAUAUGGGCUAGGCAAGAAUAACUUGUCUAGCAAAUCCAUGAGGAGUGAUGUUCCAGAAGGUUGUCCUAUCG [FmnBX 1 A11+U75] | 0.107
UUCUACGAGUGAUGUUCGUAGUGUAUUCGCUAGGAUAUCGUUUUUUCGAGAAGGAGUGAUGAAGUGAUACGAAAGUAUCGCUUCU [FMN A 14] | 0.292
UGUAUGUGUCAGCGAGUGAUGUUCGACGAUACCAGACUCGAUAGAGUCCCUUGGCAGCGUAAUGCAUGCCAACUGGCACAUACUA [#SwitchBubble 12 #K4Early] | 0.597
AAUGAUCGUAUGGCGAGGUACUCGUGUUCGAAGGAUAUUAAUAGAAUAAGAAGGUCGAAAUCGUGUCUGGAAGUGAUGUUUCCAU [theeternabot_sameState_KL_FMN_A_32] | 0.0896
UUUAAAUAUAGUGAUGUUAUAUAACAAUGACGAGGACCGGUACGGCCGCCACUCGAGAGAGAUAAUGGUCAUGCAAAUGUAUGUC [#15 K4 Tryptophan A Same State] | 0.615
CGUGAUGUAUGGCGGUUUGUCACUUAGGAUCAGGAUAUAUAAACAAAUAGAAGGGAUGGCGGAGUGAUGUUCCGCCGGCCGCCAU [FMN A Exl V8] | 0.148
GGGUUUGACGGAGGAUAUGCACUGAGGAGGAGAAUAUAGUGAUGUUAUAUAAGAGGAAGGAGAAGAGUAGAAGGCCGUUGGGUUU [SSFMNB.L] | 0.104
CGUUCCUCUGUCGAUACCAGCUUCAGUUGGCGGCCAGUGAUGUUGGUAUCGCCGAUGCCAAGCCCUUGGCAGCGACAGGAGACCC [Usleanza] | 0.163
ACUAGUUAAUCGGCCGCCACUUCUAGUGAUGUUAGAAUUAUCCAGAUUAUCAGCGUAGCACAUUGAAGGACCGGGAUAAGGUGGU [theeternabot_exclusion_KL_Trp_B_2] | 0.261
GGUAGCAUGGCGGCCGCCACUCUUCAUUAGUGAUGUUAAUGCCGAGUGCGCUAACUCCAACAGGAGAGGACCGGGCCAUGCUACC | 0.0988
GUAAGACCGGGACUCCAGUGAUGUUGGAGGCAGGAUAUCCAGUCGAGGAGAAGGGCCAGGGAUAUCGAGCUGCUCGGUUCGUAGU [Rerareatra] | 0.0665
ACGACGCAUAGUGAUACCAGCACAAUAUGAGUGAUGUUCAACAUAUAAAUGUAAUAAUUAUGCCCUUGGCAGCACUAUGCGUCAG [KL-SSTheoB1] | 0.591
